Laboratory results reported in PMC3494747.

How the values were obtained:
[1] = target: H2-D^b class I heavy chain, endogenous on RMA-S cells (mouse (endogenous in RMA-S)); assay: peptide-induced MHC class I surface stabilization assay
[2] = target: DLA-88*50801 heavy chain with a FLAG epitope tag at the carboxyl terminus, on BARC3 cells (canine); assay: flow cytometry on cells
[3] = target: DLA-88*50801 heavy chain with a FLAG epitope tag at the carboxyl terminus, on BARC3 cells (canine); assay: dissociation of peptide-MHC complexes from the cell surface under brefeldin A

dissociation half-life (t1/2), first experiment [3] [h] | Molecule | also measured
 | NP396 peptide (LCMV-derived immunodominant peptide) | MFI of anti-H2-D^b staining of peptide-loaded RMA-S cells [1]: 217 MFI
 | murine β2-microglobulin (from UniProt P01887 21-119) (natural protein) | MFI of anti-murine β2M staining (K11-pulsed BARC3 cells) [2]: 281 MFI
1.9 | KLFSGELTK [K9 peptide] | 
6 | RFLDKDGFIDK [K11 peptide] | 
